From PMC3486911 (PLoS Pathogens, 2012)
Values joined by “and” are separate entries in the source; they are usually repeats but may differ in a detail not shown here. Equal entries are not always repeated. Where two headings read alike, the source gives them in different places.

Experiments:
Experiment in all cases: SPR
[1] = biological target: V1 fHbp (V1.p1), wild type (Neisseria meningitidis) (UniProt Q9JXV4)
[2] = biological target: V1 fHbp Arg195-Ala (Neisseria meningitidis)
[3] = biological target: V1 fHbp Gln193-Ala (Neisseria meningitidis)
[4] = biological target: V1 fHbp His203-Ala (Neisseria meningitidis)
[5] = biological target: V1 fHbp Ile196-Ala (Neisseria meningitidis)
[6] = biological target: V1 fHbp Lys191-Ala (Neisseria meningitidis)
[7] = biological target: V1 fHbp Phe194-Ala (Neisseria meningitidis)
[8] = biological target: V1 fHbp (V1.p1), wild type (Neisseria meningitidis) (UniProt Q9JXV4); remark: listed apart in the source
[9] = biological target: V3 fHbp (V3.p28), wild type (Neisseria meningitidis) (UniProt E6MV22)
[10] = biological target: V3 fHbp Ala99Glu (Neisseria meningitidis)
[11] = biological target: V3 fHbp Asn123 mutant (to Ala) (Neisseria meningitidis)
[12] = biological target: V3 fHbp Asn48 mutant (to Ala) (Neisseria meningitidis)
[13] = biological target: V3 fHbp Asp126 mutant (to Ala) (Neisseria meningitidis)
[14] = biological target: V3 fHbp Asp43 mutant (to Ala) (Neisseria meningitidis)
[15] = biological target: V3 fHbp Asp92 mutant (to Ala) (Neisseria meningitidis)
[16] = biological target: V3 fHbp Gln134 mutant (to Ala) (Neisseria meningitidis) (UniProt E6MV22)
[17] = biological target: V3 fHbp Gln87 mutant (to Ala) (Neisseria meningitidis) (UniProt E6MV22)
[18] = biological target: V3 fHbp Gly49 mutant (to Ala) (Neisseria meningitidis) (UniProt E6MV22)
[19] = biological target: V3 fHbp His190 mutant (to Ala) (Neisseria meningitidis)
[20] = biological target: V3 fHbp Ile122 mutant (to Ala) (Neisseria meningitidis)
[21] = biological target: V3 fHbp Ile89 mutant (to Ala) (Neisseria meningitidis) (UniProt E6MV22)
[22] = biological target: V3 fHbp Ile96 mutant (to Ala) (Neisseria meningitidis)
[23] = biological target: V3 fHbp Leu117 mutant (to Ala) (Neisseria meningitidis)
[24] = biological target: V3 fHbp Leu98 mutant (to Ala) (Neisseria meningitidis)
[25] = biological target: V3 fHbp Lys127 mutant (to Ala) (Neisseria meningitidis)
[26] = biological target: V3 fHbp Lys32 mutant (to Ala) (Neisseria meningitidis)
[27] = biological target: V3 fHbp Pro125 mutant (to Ala) (Neisseria meningitidis)
[28] = biological target: V3 fHbp Pro46 mutant (to Ala) (Neisseria meningitidis)
[29] = biological target: V3 fHbp Ser44 mutant (to Ala) (Neisseria meningitidis)
[30] = biological target: V3 fHbp Thr128 mutant (to Ala) (Neisseria meningitidis)
[31] = biological target: V3 fHbp Val114 mutant (to Ala) (Neisseria meningitidis)
[32] = biological target: V3 fHbp Val91 mutant (to Ala) (Neisseria meningitidis)
[33] = biological target: V1 fHbp (V1.p1), wild type (Neisseria meningitidis) (UniProt Q9JXV4); remark: listed apart in the source
[34] = biological target: V3 fHbp (V3.p28), wild type (Neisseria meningitidis) (UniProt E6MV22); remark: listed apart in the source
[35] = biological target: V3 fHbp Ala99Glu (Neisseria meningitidis); remark: listed apart in the source
[36] = biological target: V3 fHbp Asn123 mutant (to Ala) (Neisseria meningitidis); remark: listed apart in the source
[37] = biological target: V3 fHbp Asn48 mutant (to Ala) (Neisseria meningitidis); remark: listed apart in the source
[38] = biological target: V3 fHbp Asp126 mutant (to Ala) (Neisseria meningitidis); remark: listed apart in the source
[39] = biological target: V3 fHbp Asp43 mutant (to Ala) (Neisseria meningitidis); remark: listed apart in the source
[40] = biological target: V3 fHbp Asp92 mutant (to Ala) (Neisseria meningitidis); remark: listed apart in the source
[41] = biological target: V3 fHbp Gln134 mutant (to Ala) (Neisseria meningitidis) (UniProt E6MV22); remark: listed apart in the source
[42] = biological target: V3 fHbp His190 mutant (to Ala) (Neisseria meningitidis); remark: listed apart in the source
[43] = biological target: V3 fHbp Ile122 mutant (to Ala) (Neisseria meningitidis); remark: listed apart in the source
[44] = biological target: V3 fHbp Ile96 mutant (to Ala) (Neisseria meningitidis); remark: listed apart in the source
[45] = biological target: V3 fHbp Leu98 mutant (to Ala) (Neisseria meningitidis); remark: listed apart in the source
[46] = biological target: V3 fHbp Lys127 mutant (to Ala) (Neisseria meningitidis); remark: listed apart in the source
[47] = biological target: V3 fHbp Pro125 mutant (to Ala) (Neisseria meningitidis); remark: listed apart in the source
[48] = biological target: V3 fHbp Pro46 mutant (to Ala) (Neisseria meningitidis); remark: listed apart in the source
[49] = biological target: V3 fHbp Ser44 mutant (to Ala) (Neisseria meningitidis); remark: listed apart in the source
[50] = biological target: V3 fHbp Thr128 mutant (to Ala) (Neisseria meningitidis); remark: listed apart in the source
[51] = biological target: V3 fHbp Val114 mutant (to Ala) (Neisseria meningitidis); remark: listed apart in the source
[52] = biological target: V3 fHbp Val91 mutant (to Ala) (Neisseria meningitidis); remark: listed apart in the source

human factor H CCP 6 and 7 (fH67) (domain or fragment)
Kd [1]: 2.8 nM and 2.35 nM and 2.45 nM | Kd [2]: 218 nM | Kd [3]: 4.75 nM | Kd [4]: 1.7 nM | Kd [5]: 1.5 nM | Kd [6]: 4.15 nM | Kd [7]: 6.15 nM | Kd [8]: 2 nM and 2.1 nM | Kd [9]: 2.4 nM and 2.3 nM | Kd [10]: 79 nM and 70 nM | Kd [11]: 7.4 nM and 8.6 nM | Kd [12]: 3.6 nM and 3.7 nM | Kd [13]: 6.3 nM and 6.5 nM | Kd [14]: 3 nM and 3.4 nM | Kd [15]: 4.7 nM and 4.8 nM | Kd [16]: 2.6 nM and 2.7 nM | Kd [17]: 0.71 nM and 0.72 nM | Kd [18]: 3 nM | Kd [19]: 3.4 nM and 3.3 nM | Kd [20]: 9.4 nM and 11 nM | Kd [21]: 38 nM | Kd [22]: 14 nM and 15 nM | Kd [23]: 5.2 nM | Kd [24]: 86 nM and 88 nM | Kd [25]: 2.9 nM and 3 nM | Kd [26]: 3 nM | Kd [27]: 3.2 nM and 3.4 nM | Kd [28]: 0.026 nM and 0.03 nM | Kd [29]: 10 nM and 9.8 nM | Kd [30]: 4 nM and 4.4 nM | Kd [31]: 3.2 nM and 3.3 nM | Kd [32]: 5.6 nM and 6.5 nM | Kd [33]: 2.05 nM | Kd [34]: 2.35 nM | Kd [35]: 74.5 nM | Kd [36]: 8 nM | Kd [37]: 3.65 nM | Kd [38]: 6.4 nM | Kd [39]: 3.2 nM | Kd [40]: 4.75 nM | Kd [41]: 2.65 nM | Kd [42]: 3.35 nM | Kd [43]: 10.2 nM | Kd [44]: 14.5 nM | Kd [45]: 87 nM | Kd [46]: 2.95 nM | Kd [47]: 3.3 nM | Kd [48]: 0.028 nM | Kd [49]: 9.9 nM | Kd [50]: 4.2 nM | Kd [51]: 3.25 nM | Kd [52]: 6.05 nM
